Data from the supplement of paper PMC6757056.
± gives the standard deviation of the averaged measurements.

B1: library; a variant is named by its letters at N, in order (parent)
chain: GCUGUCACCGAGAAACUGUGAAGUAUAUCUUAAACCUGGGCACUUAAAAGAUAUAUGGAGUUAGUAGUGCAACCUGCUCGGUCUGAUGAGUCCNNNNNNGGACGAAACAGC

Assays:
cyclic di-GMP [1] = variants of: B1; assay: FACS-Seq fitted mean relative fluorescence mCherry/BFP without ligand (log10 relative fluorescence); HEK293T; ligand: cyclic di-GMP (c-di-GMP-II aptamer); higher = higher reporter protein expression; details: ligand present: no
Method: (§1)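 Hammerhead (sTRSV) ribozyme switch libraries with a ligand aptamer grafted on stem I and a randomized N4-6 loop II, cloned into the 3' UTR of mCherry and transiently transfected into HEK293T cells; RNA-Seq 72 h post transfection with ligand added 1 h before transfection; RNA read count / plasmid DNA read count normalized to the non-cleaving sTRSVctl (x100), log10; sequences with >100 DNA reads. FACS-Seq: lentiviral library sorted into 6 bins after 48 h ligand, log-normal fit mean of mCherry/BFP scaled to controls. Printed sequences are partial switch sequences.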

cyclic di-GMP [2] = variants of: B1; assay: normalized RNA/DNA level without ligand (relative to sTRSVctl = 100) (log10 (% of sTRSVctl)); HEK293T; ligand: cyclic di-GMP (c-di-GMP-II aptamer); higher = less ribozyme self-cleavage, higher mRNA level; details: reporter: mCherry (pCS4076), ligand present: no
Method: as §1

cyclic di-GMP [3] = variants of: B1; assay: FACS-Seq fitted mean relative fluorescence mCherry/BFP with ligand (log10 relative fluorescence); HEK293T; ligand: cyclic di-GMP (c-di-GMP-II aptamer); ligand concentration (+) FACS-Seq: 1 mM; higher = higher reporter protein expression; details: ligand present: yes
Method: as §1

cyclic di-GMP [4] = variants of: B1; assay: normalized RNA/DNA level with ligand (relative to sTRSVctl = 100) (log10 (% of sTRSVctl)); HEK293T; ligand: cyclic di-GMP (c-di-GMP-II aptamer); ligand concentration (+) RNA-Seq: 1 mM; higher = less ribozyme self-cleavage, higher mRNA level; details: reporter: mCherry (pCS4076), ligand present: yes
Method: as §1

Variant	FACS-Seq fitted mean (log10) (cyclic di-GMP [1])	normalized RNA/DNA level without ligand (log10) (cyclic di-GMP [2])	FACS-Seq fitted mean (log10) (cyclic di-GMP [3])	normalized RNA/DNA level with ligand (log10) (cyclic di-GMP [4])
GCAGAA	-0.671 ± 0.025	1.27 ± 0.082	-0.367 ± 0.017	1.5 ± 0.13
CCAAAC	-0.366 ± 0.047	1.6 ± 0.019	-0.0651 ± 0.082	1.75 ± 0.14
CAUGAC	-0.0513 ± 0.12	1.63 ± 0.033	0.217 ± 0.061	1.79 ± 0.13
ACUGAA	-0.493 ± 0.087	1.43 ± 0.09	-0.161 ± 0.014	1.64 ± 0.074
UAACGA	-0.0411 ± 0.064	1.59 ± 0.026	0.272 ± 0.15	1.76 ± 0.089
AGUAAC	-0.0857 ± 0.11	1.595 ± 0.012	0.271 ± 0.023	1.79 ± 0.076
CGAAGA	-0.38091 ± 0.00015	1.37 ± 0.096	-0.0195 ± 0.04	1.65 ± 0.075
CAAUAA	-0.688 ± 0.028	1.25 ± 0.083	-0.398 ± 0.011	1.52 ± 0.074
CAAUAU	-0.659 ± 0.028	1.49 ± 0.061	-0.365 ± 0.019	1.67 ± 0.11
ACCAAA	-0.438 ± 0.056	1.49 ± 0.12	-0.0508 ± 0.12	1.71 ± 0.1
GAAAUG	-0.4346 ± 0.0037	1.55 ± 0.067	-0.122 ± 0.1	1.71 ± 0.11
ACAUGG	-0.46 ± 0.077	1.44 ± 0.11	-0.227 ± 0.031	1.61 ± 0.11
AUGAUG	-0.239 ± 0.054	1.6 ± 0.069	0.056 ± 0.078	1.77 ± 0.11
CCUCAA	0.0135 ± 0.11	1.46 ± 0.1	0.263 ± 0.07	1.67 ± 0.066
ACUCUU	-0.426 ± 0.095	1.636 ± 0.0073	-0.112 ± 0.0059	1.83 ± 0.11
GACUUG	-0.257 ± 0.031	1.63 ± 0.023	-0.0923 ± 0.026	1.79 ± 0.12
CUUACA	-0.457 ± 0.02	1.55 ± 0.067	-0.154 ± 0.088	1.72 ± 0.077
ACAGAG	-0.3716 ± 0.0034	1.44 ± 0.14	-0.0973 ± 0.031	1.59 ± 0.052

Variant	FACS-Seq fitted mean (log10) (cyclic di-GMP [1])	normalized RNA/DNA level without ligand (log10) (cyclic di-GMP [2])	FACS-Seq fitted mean (log10) (cyclic di-GMP [3])	normalized RNA/DNA level with ligand (log10) (cyclic di-GMP [4])
AAUAGG	-0.474 ± 0.0071	1.5 ± 0.069	-0.162 ± 0.0064	1.68 ± 0.12
AACAUC	-0.233 ± 0.056	1.593 ± 0.012	0.0469 ± 0.033	1.75 ± 0.13
AUACAU	-0.192 ± 0.015	1.62 ± 0.062	0.241 ± 0.0042	1.78 ± 0.074
AUACAA	-0.183 ± 0.011	1.54 ± 0.048	0.0162 ± 0.13	1.73 ± 0.099
GCCGGU	0.00404 ± 0.21	1.63 ± 0.03	0.3204 ± 0.0024	1.79 ± 0.087
AAUAAA	-0.411 ± 0.041	1.47 ± 0.097	-0.166 ± 0.054	1.69 ± 0.069
CGGUAA	-0.662 ± 0.021	1.19 ± 0.052	-0.41 ± 0.069	1.28 ± 0.087
GCCGAA	-0.291 ± 0.03	1.45 ± 0.11	-0.0327 ± 0.018	1.72 ± 0.091
GCUCGU	-0.452 ± 0.016	1.692 ± 0.015	-0.0822 ± 0.049	1.83 ± 0.038
AUCCUG	-0.263 ± 0.061	1.67 ± 0.017	-0.151 ± 0.016	1.78 ± 0.13
CUCAGA	-0.23 ± 0.18	1.64 ± 0.041	0.0277 ± 0.043	1.78 ± 0.064
AAAAUU	-0.708 ± 0.058	1.62 ± 0.034	-0.4137 ± 0.00058	1.76 ± 0.085
GUUCAU	-0.4248 ± 0.00049	1.69 ± 0.027	-0.137 ± 0.0014	1.85 ± 0.092
ACUUUA	-1.11 ± 0.037	1.59 ± 0.044	-0.989 ± 0.12	1.76 ± 0.067
AGGAUG	-0.151 ± 0.021	1.48 ± 0.054	-0.029 ± 0.059	1.63 ± 0.16
AUUCAG	-0.308 ± 0.062	1.59 ± 0.026	-0.0248 ± 0.0054	1.74 ± 0.1
UGACUC	-0.0587 ± 0.12	1.726 ± 0.0085	0.268 ± 0.025	1.86 ± 0.12
GUCACG	-0.35 ± 0.017	1.64 ± 0.028	-0.131 ± 0.21	1.84 ± 0.085
